Assay results: US20240109937A1 (Johns Hopkins, published 2024)
Values belong to the binder of their own block, whether it stands above or below them. Bridge positions count the residues as written; N and C are the ends. Square brackets hold non-standard residues; d marks the D form. Ends that are not written are not given here. Lys(N3) = [N-]=[N+]=NCCCC[C@H](N)C(=O)O; hArg = N=C(N)NCCCC[C@H](N)C(=O)O; Tle = CC(C)(C)[C@H](N)C(=O)O; Hpra = C#CCC[C@H](N)C(=O)O; Nle = CCCC[C@H](N)C(=O)O

Key:
[1] = target: Apoptosis-inducing factor (AIF) protein (UniProt O95831 122-613, limits assumed); assay: printed as 'Disrupts the complex AIF/Cyclophilin with a KD'; method not stated; target taken as AIF
[2] = target: T1, Peptidylprolyl isomerase A (PPIA), also known as cyclophilin A (CypA) (UniProt P62937 1-165); assay: KD 'determined', method not stated; target not given, taken as CypA
T1 construct: Protein used for the in vitro KD/IC50 values

[3] = target: T1, Peptidylprolyl isomerase A (PPIA), also …; assay: printed as 'disrupts the complex AIF/Cyclophilin with a KD'; method not stated
[4] = target: T1, Peptidylprolyl isomerase A (PPIA), also …; assay: binding to CypA; method not stated
[5] = target: T1, Peptidylprolyl isomerase A (PPIA), also …; assay: disruption of the AIF/Cyclophilin complex in living cells and in vitro; method not stated
[6] = target: T1, Peptidylprolyl isomerase A (PPIA), also …; assay: printed as 'Disrupts the complex AIF/Cyclophilin with a KD'; method not stated

T1 sequence (P62937 whole entry): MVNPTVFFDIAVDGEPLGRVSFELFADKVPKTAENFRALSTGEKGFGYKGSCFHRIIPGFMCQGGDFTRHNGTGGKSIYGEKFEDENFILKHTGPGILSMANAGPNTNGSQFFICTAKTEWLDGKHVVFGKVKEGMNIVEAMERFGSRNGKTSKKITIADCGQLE
Sequence of Apoptosis-inducing factor (AIF) protein (O95831 122-613 limits assumed): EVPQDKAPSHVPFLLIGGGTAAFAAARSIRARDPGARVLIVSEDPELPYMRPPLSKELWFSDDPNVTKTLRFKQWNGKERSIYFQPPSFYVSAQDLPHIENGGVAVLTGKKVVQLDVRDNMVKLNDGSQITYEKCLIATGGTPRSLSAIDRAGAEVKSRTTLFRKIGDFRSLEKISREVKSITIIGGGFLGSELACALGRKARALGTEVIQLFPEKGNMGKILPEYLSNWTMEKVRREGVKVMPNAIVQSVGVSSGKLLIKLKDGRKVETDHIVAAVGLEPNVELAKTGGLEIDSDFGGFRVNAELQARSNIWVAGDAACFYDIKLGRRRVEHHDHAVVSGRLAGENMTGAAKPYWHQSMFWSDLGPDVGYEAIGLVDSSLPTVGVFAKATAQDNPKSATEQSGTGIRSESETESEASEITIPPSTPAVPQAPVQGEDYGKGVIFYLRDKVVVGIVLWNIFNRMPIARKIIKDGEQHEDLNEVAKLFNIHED

Binder: Ac-RIIPGFMCQGGDFTR-NH2 [CypA (55-69)]
Kd [1]: ~6 µM

Binder: CIKLKL[Tle]RKVC (disulfide 1-11, X stands for the non-natural residue) [Cyclic peptide derived from Formula (I), X5-X6: L- Tle]
Kd [2]: 151 µM

B1: AIF (381-389) LLox (peptide)
peptide: Ac-CIKLKLLRKVC-NH2
modifications: disulfide 1-11
SMILES: CC[C@H](C)[C@@H]1NC(=O)[C@@H](NC(C)=O)CSSC[C@@H](C(N)=O)NC(=O)[C@H](C(C)C)NC(=O)[C@H](CCCCN)NC(=O)[C@H](CCCNC(=N)N)NC(=O)[C@H](CC(C)C)NC(=O)[C@H](CC(C)C)NC(=O)[C@H](CCCCN)NC(=O)[C@H](CC(C)C)NC(=O)[C@H](CCCCN)NC1=O
Kd [3]: ~1 µM

Binder: CIKLKIIRKVC (disulfide 1-11) [Cyclic peptide derived from Formula (I), X5-X6: I-I]
Kd [2]: 58.9 µM

Binder: CIKLKLVRKVC (disulfide 1-11) [Cyclic peptide derived from Formula (I), X5-X6: L-V]
Kd [2]: 7.57 µM

Binder: CIKLK[Nle][Nle]RKVC (disulfide 1-11, X stands for the non-natural residue) [Cyclic peptide derived from Formula (I), X5-X6: Nle-Nle]
Kd [2]: 22.9 µM

B4: Cyclic peptide derived from Formula (I), X2: hR (peptide)
peptide: CI[hArg]LKDGRKVC
modifications: disulfide 1-11; also: Y1 can be H (free N-terminus), Y2 can be amino (C-terminal amide)
notes: Only the changed residues are printed; X stands for the non-natural residue
Kd [2]: 80.3 µM

Binder: CIKLKLLRKVC (disulfide 1-11) [Cyclic peptide derived from Formula (I), X5-X6: L-L]
Kd [2]: 1.2 µM

Binder: CIKLK[Tle][Tle]RKVC (disulfide 1-11, X stands for the non-natural residue) [Cyclic peptide derived from Formula (I), X5-X6: Tle-Tle]
Kd [2]: 13.6 µM

Now from value to binder:

Kd [2]: 233 µM
Binder: CIKLKLIRKVC (disulfide 1-11) [Cyclic peptide derived from Formula (I), X5-X6: L-I]

Kd [2]: 37.6 µM
Binder: CIKLKVLRKVC (disulfide 1-11) [Cyclic peptide derived from Formula (I), X5-X6: V-L]

Kd [2]: 89.9 µM
Binder: CIKLKILRKVC (disulfide 1-11) [Cyclic peptide derived from Formula (I), X5-X6: I-L]

Kd [2]: 268 µM
Binder: CIKLKVVRKVC (disulfide 1-11) [Cyclic peptide derived from Formula (I), X5-X6: V-V]

Kd [4]: ~5 µM
IC50 [5]: 5 µM
B2: AIF (370-394) (peptide)
peptide: Ac-QSVGVSSGKLLIKLKDGRKVETDHI-NH2
notes: also called AIF mimetic peptide (amino acids 370-394)

Kd [3]: ~2 µM
B3: AIF (381-389) ox (peptide)
peptide: Ac-CIKLKDGRKVC-NH2
modifications: disulfide 1-11
SMILES: CC[C@H](C)[C@@H]1NC(=O)[C@@H](NC(C)=O)CSSC[C@@H](C(N)=O)NC(=O)[C@H](C(C)C)NC(=O)[C@H](CCCCN)NC(=O)[C@H](CCCNC(=N)N)NC(=O)CNC(=O)[C@H](CC(=O)O)NC(=O)[C@H](CCCCN)NC(=O)[C@H](CC(C)C)NC(=O)[C@H](CCCCN)NC1=O

Kd [2]: 30.7 µM
Binder: CIKLK[Nle]LRKVC (disulfide 1-11, X stands for the non-natural residue) [Cyclic peptide derived from Formula (I), X5-X6: Nle -L]

Kd [2]: 23.9 µM
Binder: CIKLKL[Nle]RKVC (disulfide 1-11, X stands for the non-natural residue) [Cyclic peptide derived from Formula (I), X5-X6: L- Nle]

Kd [2]: 147 µM
Binder: CIKLK[Tle]LRKVC (disulfide 1-11, X stands for the non-natural residue) [Cyclic peptide derived from Formula (I), X5-X6: Tle-L]

Kd [6]: ~0.8 µM
B5: AIF (370-394)-stapled peptides (peptide)
peptide: Ac-QSCGVSSG[Lys(N3)]LLCKLKDGRKV[Hpra]TDHI-NH2
modifications: disulfide 3-12; triazole 9-21
notes: also called stapled AIF (370-394) analog
